In the supplement of paper PMC12764529:
± gives the half width of the 95% confidence interval.

assay: folding stability dG unfold from trypsin proteolysis; higher = more stable
Procedure, shortened: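 Designed mini-proteins (under 80 residues, no cysteine) in a PA-tagged cDNA display construct were digested with trypsin and chymotrypsin. Each protease was used at 11 concentrations (threefold dilutions) plus a no-protease condition, followed by sequencing. K50 was inferred by Bayesian fitting of sequencing counts, and unfolding free energy was derived against a sequence-predicted unfolded-state K50 and a shared folded-state K50, per protease or combined. Only designs with AlphaFold2 dimer inter-PAE above 15 were kept.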

Row | Sequence | folding stability dG unfold
1 | SAMVTYDPEKGVFEAEIEVGGETLRVTVVRDPETGEVVAVVERPGSGEPVVLPLPFKSLSDVIRYAEEHSAG [r14_803_TrMRF] | 2.3 ± 0.07 kcal/mol
2 | SAGGSAGGSAGPENKNYMVMEMTIDIWIPLPPNAKVVFDPDEGKWKYVPIKIPIRIVMPWSAGGSAGGSAGG [r11_257_TrROS] | 2.91 ± 0.14 kcal/mol
3 | SAGGSAGGSYTVETSPVPPGGLLKTYTSPDGVVTTTLYSPDGTVGETTTTPVPPVVPPDPAAAASAGGSAGG [r6_239_JUSTAS] | -0.067 ± 0.075 kcal/mol
4 | SAGGSMEVKVEVVKDEETKEYYVKVEIRDPKTKKTITLEYKVKEEDKEEALKKAKELAEELAKKGISAGGSA [r2_221_TrROS_Hall] | 3.27 ± 0.14 kcal/mol
5 | SAGGSAGGPKEKKWYVMVHITWRDDGKERPRHFMFKSPEQVIEALEEQLPPDNIEIDVAVFPYKSAGGSAGG [r6_114_TrROS] | 1.63 ± 0.034 kcal/mol
6 | SAGGATLTLKPGDEITLTLTVTVTVTNEDGSTSTFTTTVTLTLRIEPAPPPPPVTVERDADGNLRVTLSAGG [r13_401_TrROS_Hall] | 2.35 ± 0.089 kcal/mol
7 | SAGGSAGGTIIIEVDTREDALEAARALAEALLPPGYRVEIVSVEEVDGRVYVAIEVRPVPEEELSAGGSAGG [r6_72_TrROS_Hall] | 2.43 ± 0.12 kcal/mol
8 | SAGWYYIIIIKHDNKPIVFVIPPEGMPPEGIRDQISEMLGMPPDNVEIDDIVPFDDNQDAEEAVKEALDSAG [r5_900_TrROS] | 1.53 ± 0.067 kcal/mol
9 | SPPETETYPIPNPEDGKPLMDITIERNPENGNWKVEIYWPGGKKKEVEFPPNETIPIDDLPPGFWVTITRSA [r9_1150_TrROS] | 0.532 ± 0.12 kcal/mol
10 | SAMKYLVEVTADLGGPSVRYELDAESIEEAIEKVKEKLKPLFPDAPLKNITLTFHDPSSDETTTVNIVESAG [r14_54_JUSTAS] | 3.36 ± 0.067 kcal/mol
11 | SAGGSAGGSFRIKEIEYKPPKGMIEVEIEFPNGRPIKIHINPDEGWDPIYFGGKPIFPIRIEPSAGGSAGGS [r12_789_TrROS] | -0.206 ± 0.1 kcal/mol
12 | SAGGSAGGSGMKITSISKLPDGSYLVTTQDPGKGTPTTVPFSTPEEGKKLKKELEEKGGKVELSAGGSAGGS [r20_177_JUSTAS] | -0.0663 ± 0.1 kcal/mol
13 | SAGGMPEVKIKVEITEIKVDKETGKTVTIRIKSVEITTADGRKYRVEKEIRIRPDGSIEVKVKVEELPSAGG [r13_917_TrROS_Hall] | 2.75 ± 0.089 kcal/mol
14 | SAGGKTVPIMFPFDSPDQIEEIIEELAKPGFDDVKPERIEPEPPPDGNYYFPVRIEVDPKNGKIEITFSAGG [r13_174_TrROS] | 0.0445 ± 0.13 kcal/mol
15 | SAGGGSMEEARRLIEEIAEEVKAKGVKVKVRITFGPDPKVLSIEIFSPDEPIVDNGGPGLVTLTFDIPSAGG [r13_693_JUSTAS] | 2.07 ± 0.057 kcal/mol
16 | SMITLELTDPATGAKYTLTIDPSTGKAKVTRTPPTGPPVSGTGTIEGNTLTITLYEPSGKPLATLTLPLPSA [r9_665_JUSTAS] | 3.89 ± 0.11 kcal/mol

Row | Sequence | folding stability dG unfold
17 | SAMVVIPFPKDTPPEVALEAVRKAVREAAENGIVPEKIVVVAHPDLVFLVDSLVEAGIPLENVEFVPSESAG [r14_589_TrMRF] | 2.87 ± 0.069 kcal/mol
18 | SAGGSAGGMLLDEDGNLVVKIKLENGEEFEAKVTEIKDGKITVEVNGKKVEINAKDIELLPEDESAGGSAGG [r6_575_TrROS_Hall] | 2.23 ± 0.088 kcal/mol
19 | SAGGSAGPSVTVDVTFHPGEGTVDVTVTTEGEVVYGKGTFLNPSTVLVEVYFPGSGKVATLTLPVTSAGGSA [r15_837_TrMRF] | 1.87 ± 0.066 kcal/mol
20 | SAGGSAGGSAGGMVRITVEVDGKTYELVVEGMSLEEIEELLKKPNIKKAKVEPLSEEELKSAGGSAGGSAGG [r7_502_TrROS_Hall] | 1.24 ± 0.04 kcal/mol
21 | SAGGSAGGSAGGPRTIYIPVKVEPDPNGKWKIDIEEIAKNLPDVKITSITPNYIKITFPASAGGSAGGSAGG [r11_771_TrROS] | 0.398 ± 0.18 kcal/mol
22 | SAGGSAGGSAGGMFVRIEVDGKTILLEADSLEEALAAIRALLPPGEKVKVELVSEEELKSAGGSAGGSAGGS [r10_1167_TrROS_Hall] | 2.44 ± 0.084 kcal/mol
23 | SAGGSAGGSAGIEIELNGKPVTIHPNPDGYYRVRFPGPGKSILIPGMPPDDIKDFAKELLSAGGSAGGSAGG [r11_1085_TrROS] | -0.161 ± 0.15 kcal/mol
24 | SPDIEIEPMPNGSYMIEVPVPPDAESIEVPFPGNGRPVTIHRDPDKIHIFFNNPEQIEEIAEAIADGKPISA [r9_515_TrROS] | 0.0692 ± 0.047 kcal/mol
25 | SAGDALKEAAKPGEEVTVRLRLTLTFTTETFTDDDGRERTVETVTVTVELEARVVAVDPETGELVIELRSAG [r5_5_TrROS_Hall] | 2.56 ± 0.12 kcal/mol
26 | SAGGSADPDSPYVIRFNKPYTTFSPDGTPIELTEDVLKRFKSEEEAKKAKEELEKKGAKVEPVEGSSAGGSA [r15_117_JUSTAS] | -0.767 ± 0.41 kcal/mol
27 | SGPALEILRAASEEEGVPVLAEVVPDADGNPVIPAVVWSPEDIEAGELPGEVKEAPITVDGKTYRVVLFASA [r9_489_TrMRF] | -0.224 ± 0.11 kcal/mol
28 | SAGGKKYVLIKVKVRVEKEVNGEKKEVELELEILVPVDEETGKTPEEKAKELAKKLPPEVTEVKIEPVSAGG [r13_335_TrROS_Hall] | 1.63 ± 0.15 kcal/mol
29 | SGPTVTYKVPYTRDVAVPTVKIGAKVTTTTTVTKLPNGTLASTSTSADVELTLNLPPDTPLSPNYLSTGGSA [r9_277_JUSTAS] | -0.0817 ± 0.21 kcal/mol
30 | SAGGKKKKPKKKIKIKIVKVEKKYDKKTGKLKEVRIEIEIEAESEEEAKKLAEELAKKLNIEVEVKKKSAGG [r13_606_TrROS_Hall] | 1.28 ± 0.11 kcal/mol
31 | SAGGSAGGSAGGSGPSVVLVSLPDGSYIAFPSGADVNIEIPSSSSGARIVAVIPLSELSSAGGSAGGSAGGS [r4_122_TrMRF] | 0.111 ± 0.059 kcal/mol
